Measurements as given in US11473073B2, “Aminopeptidases for protein hydrolyzates” (DUPONT NUTRITION BIOSCIENCES APS, priority 2015, dated 2022).

Tests used:
[1] = test system: peptide WHWLQLKPGQPMY (SEQ ID NO:26); assay: Hydrolysis of proline containing peptide, LC-MS; type: biochemical; settings: peptide 1 mg/mL, aminopeptidase 1 ug/mL, CPB-Buffer, 55° C.; FIG. 5-7
Method: The peptide […] (SEQ ID NO:26) was hydrolysed with TRI03 and TRI035. The peptide (1 mg/mL) was incubated with 1 ug/mL of the aminopeptidase in 20 mM CPB-Buffer (20 mM Citric acid, 20 mM Phosphate. 20 mM Boric acid) at 55° C. Aliquots (50 μL) were stopped with 50 rel 5% TFA at the indicated time points and subjected to LC-MS analysis.
Capillary LC-MS/MS analyses were performed using an Agilent 1100 LC system (Agilent Technologies) interfaced to a LTQ Orbitrap Classic hybrid mass spectrometer (Thermo Scientific, Bremen, Germany). Samples were loaded onto a 15 cm Phenomenix Jupiter 4μ Proteo 90A, C4 analytical column. Separation was performed at a flow rate of 16 μL/min using a 10 min gradient of 0-40% Solvent B H2O/CH3CN/HCOOH (50/950/0.65 v/v/v) into the IONMAX® ion source (Thermo Scientific, San Jose). The LTQ Orbitrap Classic instrument was operated in a data-dependent MS/MS mode. The peptide masses were measured by the Orbitrap (MS scans were obtained with a resolution of 60 000 at m/z 400), and up to 2 of the most intense peptide m/z were selected and subjected to fragmentation using CID in the linear ion trap (LTQ). Dynamic exclusion was enabled with a list size of 500 masses, duration of 40 s, and an exclusion mass width of ±10 ppm relative to masses on the list.
The RAW files were accessed with the program Skyline 2.6.0.7176 (MacLean, B., et al., “Skyline: an open source document editor for creating and analyzing targeted proteomics experiments”, Bioinformatics, 2010, 26(7): p. 966-8) which uses the MS1 intensities to build chromatograms (Schilling, B., et al., “Platform-independent and label-free quantitation of proteomic data using MS1 extracted ion chromatograms in skyline: application to protein acetylation and phosphorylation”, Mol Cell Proteomics, 2012. 11(5): p. 202-14). The precursor isotopic import filter was set to a count of three, (M, M+1, and M+2) at a resolution of 60,000 and the most intense charge state was used. Peptide sequences of the substrate as well as cleavage products were typed into Skyline and intensities were calculated in each sample. […]

[2] = test system: peptide WHWLQLKPGQPMY (SEQ ID NO:26); settings: as described by Blinkovsky et al., Biochimica et Biophysica Acta 1480 (2000) 171-181; cited from earlier work

B1: Aspergillus oryzae PepN 2: Aspergillus oryzae PepN 2 described by A. M. Blinkovsky et al., Biochimica et Biophysica Acta 1480 (2000) 171-181 (protein)
chain: RALVSPDEFPEDIQLEDLLEGSQQLEDFAYAYPERNRVFGGKAHDDTVNYLYEELKKTGYYDVYKQPQVHLWSNADQTLKVGDEEIEAKTMTYSPSVEVTADVAVVKNLGCSEADYPSDVEGKVALIKRGECPFGDKSVLAAKAKAAASIVYNNVAGSMAGTLGAAQSDKGPYSAIVGISLEDGQKLIKLAEAGSVSVDLWVDSKQENRTTYNVVAQTKGGDPNNVVALGGHTDSVEAGPGINDDGSGIISNLVIAKALTQYSVKNAVRFLFWTAEEFGLLGSNYYVSHLNATELNKIRLYLNFDMIASPNYALMIYDGDGSAFNQSGPAGSAQIEKLFEDYYDSIDLPHIPTQFDGRSDYEAFILNGIPSGGLFTGAEGIMSEENASRWGGQAGVAYDANYHAAGDNMTNLNHEAFLINSKATAFAVATYANDLSSIPKRNTTSSLHRRARTMRPFGKRAPKTHAHVSGSGCWHSQVEA
For B1, the “hydrolysis of WHWLQLKPGQPMY to KPGQPMY and further down to QPMY” value [1] is listed as “cleaves the peptide down to QPMY” and the “hydrolysis of X-Pro bonds including those of WHWLQLKPGQPMY” value [2] is listed as “does not hydrolyze”.
